Results published in patent publication US20080207488A1, “Method for Detecting Peptides Comprising a Cross-B Structure” (priority 2005, published 2008).

Legend:
tPA = target: T1, tPA (Homo sapiens, UniProt P00750); assay: Plasminogen-activation assay (tPA-mediated Plg to Pls, S-2251); type: biochemical
T1 construct: purchased Boehringer-Ingelheim (Actilyse, Alteplase)
Protocol: Plasmin (Pls) activity was assayed as described^7. Peptides and proteins that were tested for their stimulatory ability were regularly used at 100 μg ml^−1. […] Chromogenic substrate S-2251 (Chromogenix, Instrumentation Laboratory SpA, Milano, Italy) was used to measure Pls activity. Conversion of zymogen factor XII (#233490, Calbiochem, EMD Biosciences, Inc., San Diego, Calif.) to proteolytically active factor XII (factor XIIa) was assayed by measurement of the conversion of chromogenic substrate Chromozym-PK (Roche Diagnostics, Almere, The Netherlands) by kallikrein. Chromozym-PK was used at a concentration of 0.3 mM. Factor XII, human plasma prekallikrein (#529583, Calbiochem) and human plasma cofactor high-molecular weight kininogen (#422686, Calbiochem) were used at concentrations of 1 μg ml^−1. […] Assays were performed using microtiter plates (Costar, Cambridge, Mass., USA). Peptides and proteins were tested for their ability to activate factor XII. 150 μg ml^−1 kaolin, an established activator of factor XII was used as positive control and solvent (H2O) as negative control. The conversion of Chromozym-PK was recorded kinetically at 37° C. for at least 60 minutes. Assays were done in duplicate. […] Alternatively, chromogenic substrate S-2222 (Chromogenix) was used to follow the activity of factor XII itself. With S-2222, activation of factor XII in plasma was measured, using 60% v/v plasma, diluted with substrate and H2O with or without potential cofactor. Furthermore, auto-activation of factor XII was measured by incubating 53 μg ml^−1 purified factor XII in 50 mM Tris-HCl buffer pH 7.5 with 1 mM EDTA and 0.001% v/v Triton-X100, with S-2222 and H2O with or without potential cofactor.
(§1) Formulated protein therapeutics were obtained from the local hospital pharmacy and were used as supplied by the manufacturers. […] Lyophilized therapeutics were dissolved according to the manufacturers recommendations. […] Other protein therapeutics were only kept at 4° C., and assayed for the presence of cross-β structure conformation at shown time points. Enhancement in fluorescence of ThT and Congo red was measured with all formulated protein therapeutics. For this purpose, proteins were diluted to the indicated concentrations. […] Zinc-insulin was diluted tenfold in the activation assay, GH was diluted to a final concentration of 500 μg ml^−1. Activation of factor XII and prekallikrein by the therapeutics was tested in the chromogenic factor XII assay (see above). […] After coating, plates were blocked with Blocking Reagent (Roche Diagnostics, Almere, The Netherlands).
Purification of β2-glycoprotein I (β2GPI) was performed according to established methods^11,12. Recombinant human β2GPI was made using insect cells and purified as described^11. Plasma derived β2GPI as used in a factor XII ELISA, the chromogenic Plg-activation assay and in the anti-phospholipid syndrome antibody ELISA (see below), was purified from fresh human plasma as described^12.
(§2) To prepare structurally altered ovalbumin (OVA) with amyloid cross-β structure conformation, purified OVA (Sigma, A-7641, lot 071k7094) was heated to 85° C. One mg ml^−1 OVA in 67 mM NaPi buffer pH 7.0, 100 mM NaCl, was heated for two cycles in PCR cups in a PTC-200 thermal cycler (MJ Research, Inc., Waltham, Mass., USA). In each cycle, OVA was heated from 30 to 85° C. at a rate of 5° C./min. Native OVA (nOVA) and heat-denatured OVA (dOVA) were tested in the ThT fluorescence assay and in the Plg-activation assay. In the fluorescence assay and in the Plg-activation assay, 25 and 100 μg ml^−1 nOVA and dOVA were tested, respectively. TEM images of nOVA and dOVA were taken to check for the presence of large aggregates. […] MSA (#126674, Calbiochem) was dissolved in 8 M urea, 100 mM Tris-HCl pH 8.2, at 10 mg ml^−1 final concentration.

[1] = Thioflavin T fluorescence; type: physicochemical
Protocol: Fluorescence of ThT-protein/peptide adducts was measured as follows. […] Fluorescence was measured at 485 nm upon excitation at 435 nm. Background signals from buffer, buffer with ThT and protein/peptide solution without ThT were subtracted from corresponding measurements with protein solution incubated with ThT. […] Fluorescence was measured in triplicate on a Hitachi F-4500 fluorescence spectrophotometer (Ltd., Tokyo, Japan).
as §1
as §2, with “concentration. Dithiothreitol (DTT) was added to a final concentration of 10 mM. Air was replaced by N2 and the solution was incubated for 2 h at room temperature. Then, the solution was transferred to ice and iodoacetamide was added from a 1 M stock to a final concentration of 20 mM. […] Alkyl-MSA was dialyzed against H2O before use. […] In the ThT-fluorescence assay 25 μg ml^−1 nMSA and alkyl-MSA were tested, and in the Plg-activation assay 100 μg ml^−1 was tested. The presence of aggregates or fibrils was analyzed using TEM. […]” for “concentration.”
Protein therapeutics were obtained from the local hospital pharmacy and analyzed within the expiry limits as stated by the manufacturers.

[2] = target: T2, human fibronectin finger 4,5 (Fn F4,5) fragment (Homo sapiens, UniProt P02751); assay: ELISA, binding of fibronectin F4,5 to coated (mis)folded proteins; conditions: coated protein; for affinity of fibronectin F4,5 (detection anti-FLAG HRP): FIG. 7D-H
T2 construct: human fibronectin finger 4,5 (Fn F4,5) fragment; made in house; host or cells: HEK293E cells, transient transfection, protein purified from the medium
Protocol: The plates were blocked using Blocking reagent (Roche 1112589). A dilution series of the protein of interest was applied to the coated proteins and wells were subsequently washed using TBS-T (50 mM Tris pH 7.3, 150 mM NaCl and 0.1% Tween20). Bound protein is detected by the FLAG-tag using 1:3000 anti-FLAG-HRP (Sigma A-8592) in PBS-T, or by 1:1000 Ni-NTA-HRP (Qiagen 34530) in PBS-T. The HRP reaction Is performed using the TMB substrate (Biosource 4501103 or Tebu Bio 101TMB100-500), stopped using 10% H2SO4 and absorbance was measured at 450 nm.

T2 sequence (P02751 182-276 limits assumed): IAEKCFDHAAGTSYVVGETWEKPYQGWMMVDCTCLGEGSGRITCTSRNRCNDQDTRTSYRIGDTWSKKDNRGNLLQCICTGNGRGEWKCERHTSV
T1 sequence (P00750 36-562): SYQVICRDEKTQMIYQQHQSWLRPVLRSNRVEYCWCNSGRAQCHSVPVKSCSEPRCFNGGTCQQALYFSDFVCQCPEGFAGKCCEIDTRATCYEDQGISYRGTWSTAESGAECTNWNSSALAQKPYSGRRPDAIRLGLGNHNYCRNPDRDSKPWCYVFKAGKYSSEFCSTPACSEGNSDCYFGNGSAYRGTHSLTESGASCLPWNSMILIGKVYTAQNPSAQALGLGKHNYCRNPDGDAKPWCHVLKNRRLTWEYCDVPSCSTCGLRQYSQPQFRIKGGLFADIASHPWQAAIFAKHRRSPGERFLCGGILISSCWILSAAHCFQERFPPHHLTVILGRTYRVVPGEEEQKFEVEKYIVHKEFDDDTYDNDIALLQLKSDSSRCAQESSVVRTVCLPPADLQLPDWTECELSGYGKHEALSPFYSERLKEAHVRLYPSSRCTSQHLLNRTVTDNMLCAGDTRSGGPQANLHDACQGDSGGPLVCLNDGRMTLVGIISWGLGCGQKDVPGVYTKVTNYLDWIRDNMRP

Substance | Pls activity (tPA activation) (tPA; after storage at 65° C.) | tPA activation by protein therapeutics (tPA; stored at 4° C., GH 500 μg ml^−1, zinc-insulin diluted tenfold) | ThT fluorescence enhancement ([1]; after storage at 65° C.) | Fluorescence (a.u. +/− SD) ThT ([1]; marketed biopharmaceutical within expiry limits, five μL tested) | enhancement of ThT fluorescence ([1]; therapeutics stored at 4° C.) | activation of tPA and Plg by component alone (tPA; FIG. 2G, without contacting) | affinity of fibronectin F4,5 (detection anti-FLAG HRP) [2] | ThT fluorescence after incubation with kaolin ([1]; compared to buffer) | binding of fibronectin F4-5 (detection Ni-NTA-HRP) ([2]; FIG. 7A)
Abciximab: abciximab, an inhibitor of blood platelet aggregation (ReoPro, Centocor) | induced Pls activity | do not have ThT fluorescence enhancing or tPA activating properties | enhanced ThT fluorescence | 8 +/− 8 a.u. | do not have ThT fluorescence enhancing or tPA activating properties |  |  |  | 
lysozyme: chicken egg-white lysozyme |  |  |  |  |  | do not activate tPA and Plg | high affinity | only in a small increase in ThT fluorescence | 
albumin-AGE: advanced glycation end-product modified bovine serum albumin |  |  |  |  |  |  | High affinities |  | high affinity binding
